Results: the DeepSol protein solubility set

Experiment: soluble on expression in E. coli; label from the status in PepcDB or PDB records

Soluble on expression in E. coli, not soluble:
MGSDKIHHHHHHMSNLLEVNSLNVQFNYDETTVQAVKNVSFELRKKHILGIVGESGSGKSITAKSILGLLPDYPDHTLTGEIIFNGQSLNNLSTSALQQIRGKDISMIFQDPLSSLNPRLTIGKQITEVLFQHKRVSKSEAKSMTINILEKVGIKHATRQFDAYPHELSGGMRQRVMIAMALILKPQILIADEPTTALDASTQNQLLQLMKSLYEYTETSIIFITHDLGAVYQFCDDVIVMKDGSVVESGTVESIFKSPQHTYTKRLIDAIPDIHQTRPPRPLNNDILLKFDRVSVDYTSPSGSLYRAVNDINLAIRKGETLGIVGESGSGKSTLAKTVVGLKEVSEGFIWYNELPLSLFKDDELKSLRQEIQMIFQDPFASINPRFKVIDVIKRPLIIHGKVKDNDDIIKTVVSLLEKVGLDQSFLYRYPHELSGGQRQRVSIARALAVEPKVIVCDEAVSALDVSIQKDIIELLKQLQLDFGITYLFITHDMGVINEICDRVAVMKNGEIVELNNTEDIIKHPQSDYAKQLISEVAVIAK, MGSDKIHHHHHHMSNNLLVLQSDFGLVDGAVSAMIGVALQEAPTLGIHNLTHEITPYNIFEASYRLFQTVEYWPQGTTFVSVVDPGVGSDRKSVVALTSRNQYIVTPDNGTLSYIKKHVGIKAVREISEIENRRRNTELSYTFHGRDVYAFTGAKLASDHISFEEVGPELAIESIVELPVVETVIEDNLVRGAVDILDVRFGSLWTSITREEFYTLKPEFNDRFEVTIYNNDMLVYQNQVTYGKSFAAVRIGQPIIYINSLYRVGVAINQGSFANAYNVGVGPQWRIEIKKLN, MGSDKIHHHHHHMSNQLENAKNLYLRGIRDGEIKEVHENYMGASYTQHSTGVPDEKEGFAAFFEDFFKRNPKREINIVRAIEDGNFVFVHVHQKLNDGEAEWVTADIFRSDENGRIVEHWDVIDAYPKTIDQTDPIYADFELTDLDKTEDNKKIVRRFLVDVFQNGEIDKFDDYVAANLIQHNQEIAQGGAAYKDYLVDKAVNYDFVFKVMGQGDYVVAYSKVWIAGQDYAHFDIYRLKDGKIVEHWDNKEVMPDKKDLTNLGKF, MGSDKIHHHHHHMSQAKATFSTEHDLNTSEQQAFWQSVVQDTLITADGITLAYMMVKHPQAHTAIVLSSGRVESYLKYQELVFDLYQQGYSVYAIDHRGQGLSDRMTINPHMGHVRRFNDYIDDFALFMQKKVLPQNDKQLMLLGHSMGGAIGTLYLKQHPDIFTAAAFSAPMYGIKLPMPKAFVRWLASKLDTTLNGGEPNYVLGGQNYKPVPFKGNELTHCQSRYQAYRDLYDAAPKLQLGSPTNRWLTESLDAADTCVLATAQIRTPILILQASEDKIVDNAAQNLAVSTHCQLKVIAGAAHEIFMEKDAYRNQALNYALDFFKRFAIKDEDKQAG, MGSDKIHHHHHHMSQHETPLYTGLKKHASRQPVQFHIPGHKKGAGMDPEFRQFIGENALSIDLINIEPLDDLHAPKGIIKQAQDLAAEAFGADHTFFSVQGTSGAIMTMVMAVCGPGDKIIIPRNVHKSIMTAIVFSGAVPIFIHPEIDNELGISHGITLESAKRALTEHPDAKGLLVINPTYFGVAADLKSIVELAHSFDVPVLVDEAHGVHIHFHDELPLSAMQAGADIAATSVHKLGGSLTQSSILNMREGLVSKDRVQSILSMLTTTSTSYLLLASLDVARKRLATEGRQLAEETLKLANQTRDRLNQIEGIYCVGSEILGSKAAYSYDPTKLIISVKSLGLTGHDVEKWLRESFNIEVELSDLYNILCIFTPGDSQNDADRLVEALTEIAQQMSEQDVTHQQTEVLLPEIPLLAMTPRDAFYANTEVIPLKEASGRIIAEFVMVYPPGIPIFIPGEIITEENISYIFKNLDAGLPVQGPEDSTLHMIRVIKEQKAIQ, MGSDKIHHHHHHMSQVIPASSQEKRRERIVSYVTRHGFARVEALAELFEVSAMTIHRDLEALAADNLVERIRGGARSVSPSMSELAVEQRRHLHRTVKEALCTAAARLIPEGAVVAIDDSTTLESLVEKLPQRSPSALITHSLKTMADHRVRAGMSDIRLIACAGLYFAETDSFLGKATSAQLNELSADISFVSTTAVRATGEVPALFHPDMEAADTKRALIGIGSVRVLVVDSSKFGSAGVFKVASIEEFDHIIIDQQCTREQRDLLRNSRAQIHVIDHNGDEILDTPTEEDF, MGSDKIHHHHHHMSQVVIAVLANAGGVGKSTLSVHLAYEVSRRKLKVALLDLDPQRSLDVFCGLEAAEAEKTMFKVLSKDFIGDWALASAWDEPRIEVCQGHPLLAEIANELVIRKRGEYMLADRLQKYSLPHDLVIVDCPATLGMLNVNALAAATHILVPIQLEMKAISGSAELVEWCMNTSEELQLTPKPQILGFVPSMYDETVAMHRQYHSQLPEIALQLDIKLYPKIRSSNEFKNASAHGLPLHKYRNKHPACKDFKQIADDVIQLIKNK, MGSDKIHHHHHHMSRAIPAMPLAPASAALDLSKVKTLVCEPSLPIRQGIRLALNNVGIRDITEATTFLAAHQACKEGDHDFLLLNQEIETNDTAFMVRELRSGALGRDPFILTVMLLSSREEPKVRSAIDCGPDDLLLIPFAPDQLMNRLKAQIERRKPFVVTHDYIGPDRRAAPRPGATSATQFQVPNPVRARGTNVPRDRYDRMKQESIVTISVERIKRLAATMDWECNALTVSAREGRMTPESTYRSLLKLEQVTAELSLRVTKQLGHSTETIDSLTQYLPPVEDGSEQCKLFRC, MGSDKIHHHHHHMSRIENQFTVQFWGVRGSIPSPGPHTVRYGGNTPCISMQAGDKRLVFDAGTGLHVLGQSWLRQMPLEGHIFFTHSHWDHMQGFPFFTPGFVKGNDFHIYGAIAPDGSTIEQRLNDQMLHPNFPVPLQIMQANLKFYDIRPGQPIHIDDVTVETAPLNHPGEAVGYRVNWRGGAVAYITDTEHFPDRLDDNVLWLARNADILVYDSTYTDEEYHSPKTPKIGWGHSTWQEAVKVAQAANVKTLVIYHHDPAHNDDFLDCVGQQASEKFPGAIMAREGMVLQIPTSVALSESFPVSKFST, MGSDKIHHHHHHMSRLVRSATLSRYTEVARSVGLDPLRILAEVGLPRTCLDAGDNLVSANAVCRLLEMSAADSDAEDFGLRMGEGRQLSVLGPLGMAVRDSPTLRDALGAMVRYITLHSEALFLGVEEREGALVIRVSLIVEHAGSTRQADEMVVVSLYRMLQELIGPGWRARRICLSHEAPRSLASHLRVFGRAVDFGCDFNGIVCELKDMDAMPRAARPELAQYAHAYLDSLSARATLSMTENVRRMVLSLLPSGNCSVERVASQLGVDRRTVHRKLLQEGASFSSILDEVRATLALQYLRHLERPVSYVAVLLGFSMQSAFSRWFRDHFGCSPSAWRSEGMQPARPVPRQPLLAASPEQRM, MGSDKIHHHHHHMSRRLPPLNAVKAFEAAARHLSFTRAAEELFVTQAAVSHQIKALEDFLGLKLFRRKNRSLLLTEEGQSYFLDIKDIFTQLSDATDRLLARSAIGSLTVSMSPSFAIQWLVPRLAKFSEKNPDIDVRIKAVDSEEGSLTDDVDVAIYYGQGSWPGLRADKLRNEVLIPVCSPMLLNGHKPLETPADLKHHTLLHDMSRHDWQAWFRQCGVTDVNVNQGPIFSHSSLVLQAAAHGQGVALGYSVLARPDIKAGRLVVPFQEVLVSKDAYYLVCQQNHAELGKIVAFREWMLDMFAEESRSELLPA, MGSDKIHHHHHHMSSQNALYMLIDERLRRDELKLPGLPETAEQVRNAAMDPDCNLHDLCHIIQQDTALTARLIRLANSAYLGGRNKAESLMQALTRIGMRRIRTLALAMAMEQVFKPDNDIVQMFSQQFIVESREIAAAAVVITEDLQHRGIGHRLHQDVALLAGMVSRIGVAPILHMANEFEDSFANPSFIKECITQFSSTLGSNILSYWQFTPNLVQVPLCYYNGRMTLNDAITVNYCDIVHLAGLLTGNVKPNKDSVTLVEYQMLGVIKTDDFWQQESVQKSYRQMLDLLS, MGSDKIHHHHHHMSSSSVLAESCNGSQKKRVFVVGATGYIGKFVVRELVSRGYEVISFARPRSGVNASTTEDETRRQLQGSEVRFGDVSNLESLLRDGIRGEHFDAVVSCLASRNGGIKDSWDIDYQATRNSLDAGMKAGINHFVLLSAICVQKPMLEFQRAKLKFEKELRESGVTYSIVRPTAFFKSIAGQIEKVKNGKPYVMFGDGKLTACKPISEGDLARFITDCLEDPEKQNKILPIGGPGEPVTNLDQALMLFELLGRKPKLKKVPIQIFDVIIPLLTLISKFLPSFAEKAEFARIGKYYCSESMLVWDPVKKRYDADATPSYGTETLRDFYKRVLKEGLAGQELGAHAMF
